# In paper PMC4186855, “A Soybean C2H2-Type Zinc Finger Gene GmZF1 Enhanced Cold Tolerance in Transgenic Arabidopsis”:
# T1: GmZF1 (GST fusion) (Glycine max (soybean), UniProt Q4FH86 1-172)
# T1 sequence: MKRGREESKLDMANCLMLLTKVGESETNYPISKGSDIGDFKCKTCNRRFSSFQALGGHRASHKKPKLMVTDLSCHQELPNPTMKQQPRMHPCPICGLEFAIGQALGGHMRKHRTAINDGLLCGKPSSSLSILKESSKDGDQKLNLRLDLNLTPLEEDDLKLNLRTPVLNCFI
# B1: E1 (wild-type EP1S, 4 copies) (dsDNA)
# DNA 1: TTGACAGTGTCACTTGACAGTGTCACTTGACAGTGTCACTTGACAGTGTCAC
# DNA 2: GTGACACTGTCAAGTGACACTGTCAAGTGACACTGTCAAGTGACACTGTCAA
# B2: E2 (mutant EP1S, base substitution) (dsDNA)
# DNA 1: TTCAGAGTGTCACTTCAGAGTGTCACTTCAGAGTGTCACTTCAGAGTGTCAC
# DNA 2: GTGACACTCTGAAGTGACACTCTGAAGTGACACTCTGAAGTGACACTCTGAA
# Target: T1, GmZF1 (GST fusion)
# Experiment: EMSA; 20 µL binding buffer with 32P-labelled probe, glycerine and 0.2 µg purified protein; 6% polyacrylamide gel in TBE (printed as 0.53, probably 0.5x); salt, pH and temperature not stated
# Details: protein: recombinant; tags: GST (pGEX-4T-1); label: 32P
row,Binder,binding result
1,B1,binds
2,B2,binds
